The values below come from patent US20180105596A1 (ELSALYS BIOTECH, published 2018).

Assay [1] concerns the target T1, recombinant His-Strep tagged human Tyro3 extracellular domain (human, UniProt Q06418 41-429).
T1 construct: also called hTyro3 ECD; full Tyro3 ECD
T1 sequence: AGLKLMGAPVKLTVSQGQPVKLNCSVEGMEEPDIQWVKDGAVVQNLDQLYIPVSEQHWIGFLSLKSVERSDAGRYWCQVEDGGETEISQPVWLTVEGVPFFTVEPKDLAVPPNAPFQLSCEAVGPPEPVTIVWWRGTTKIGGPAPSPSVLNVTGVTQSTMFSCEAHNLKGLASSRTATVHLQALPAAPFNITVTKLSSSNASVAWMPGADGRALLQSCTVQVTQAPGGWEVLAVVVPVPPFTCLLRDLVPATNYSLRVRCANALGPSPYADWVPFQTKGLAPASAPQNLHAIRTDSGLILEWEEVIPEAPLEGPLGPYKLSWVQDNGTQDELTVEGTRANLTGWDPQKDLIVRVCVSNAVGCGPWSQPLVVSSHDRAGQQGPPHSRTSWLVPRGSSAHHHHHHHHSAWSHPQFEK
The assay is described as follows: sandwich ELISA, Strep-tagged hTyro3 ECD captured on StrepMAB plate, IgG 3-fold from 3 µg/mL, anti-human IgG1-HRP. On the procedure: (§1) A double sandwich ELISA was developed. This assay consisted in measuring the binding of the anti-Tyro3 antibodies to be tested on immobilized strep-tagged entire human Tyro3 ECD captured directly on ELISA plate pre-coated with an anti-strep mAb (StrepMAB-Immo coated microplates from IBA biotech). Briefly, the 96 wells of StrepMAB-Immo coated microplate were washed three times with 300 μL of the PBS Tween 0.2% (referred as ELISA washing solution). The capture of an excess of purified strep tagged hTyro3 ECD protein was achieved by a one hour incubation at room temperature. In these experiments, 3 μg of purified protein diluted in PBS, BSA 1% (referred as ELISA diluent solution) were immobilized per well. The wells were washed three times with 300 μL of the washing solution. The non-specific binding sites on the well surface were blocked during 60 min at room temperature with 200 μL/well of blocking solution (PBS, BSA 3%). The wells were washed five times with 300 μL of the washing solution. Then, 100 μl (in duplicates) of the different concentrations of anti-Tyro3 antibodies to be tested diluted in ELISA diluent solution, were added per well and allowed to incubate during 1 hour at room temperature. An Irrelevant control IgG2656 was also added in this experiment. For anti-Tyro3 antibodies in the ScFv format, experiments were performed with 6 concentrations in duplicates (FIG. 3A). For anti-Tyro3 antibodies in the IgG format, experiments were performed with 9 concentrations in duplicates (FIG. 3B). […] For IgGs experiments, starting concentration for first dilution was 3 μg/ml and then dilutions of 3 fold in the ELISA diluent solution were performed. The wells were washed five times with 300 μL of the washing solution. […] The mix was allowed to incubated 60 min at room temperature.
In general terms: ELISA stands for enzyme-linked immunosorbent assay.

For assay [2], the target named is T1, recombinant His-Strep tagged human …. The assay is described as follows: BLI (Octet K2), IgG on AHC tips, hTyro3 ECD analyte, 1:1 global fit; KD Error 5,96E-10. How it is done: (§2) Affinity determinations were performed using biolayer interferometry on an Octet K2 instrument (Pall/ForteBio) equipped with anti-Human Kinetics (AHC) disposable fiber-optic biosensor tips. All experiments were conducted at 30° C. in the recommended Fortebio running buffer (PBS with 0.1% (w/v) bovine serum albumin (BSA) and 0.02% (v/v) Tween_20). This buffer was also used for dilution of ligand (here the antibody) and of the analyte (here the extra cellular domain of human Tyro3 protein). Samples in a 96-well microplates (No. Black polypropylene low binding plates, Greiner Bio-One, Frickenhausen, Germany) were agitated at 1000 rpm. […] Between measurements, the anti-human Tyro3 biosensor surfaces were regenerated by exposing them to 3 cycles of 5 sec in 10 mM glycine, pH 1.5, followed by 5 sec in PBS. Association phase was measured for 300 seconds, dissociation phase depending on the interaction for 300 seconds depending on dissociation step. […] Affinity, association (kon) and dissociation rate constants (koff) for each antibody were calculated applying a 1:1 interaction model fitting global, Rmax linked by sensor) on the ForteBio data analysis software 9.0.
A general note: BLI is a label-free optical method that tracks binding on a fibre tip over time.

The target is the same in assay [3]. The assay is described as follows: BLI (Octet K2), IgG on AHC tips, hTyro3 ECD analyte, 1:1 global fit; kdis(1/s); kdis Error 1,42E-05. On the procedure:
as §2

Assay [4] has the same target. The assay is described as follows: BLI (Octet K2), 1:1 global fit; analyte concentration of this kobs not given. How it is done: Affinity determinations were performed using biolayer interferometry on an Octet K2 instrument (Pall/ForteBio) equipped with anti-Human Kinetics (AHC) disposable fiber-optic biosensor tips. All experiments were conducted at 30° C. in the recommended Fortebio running buffer (PBS with 0.1% (w/v) bovine serum albumin (BSA) and 0.02% (v/v) Tween_20). This buffer was also used for dilution of ligand (here the antibody) and of the analyte (here the extra cellular domain of human Tyro3 protein). Samples in a 96-well microplates (No. Black polypropylene low binding plates, Greiner Bio-One, Frickenhausen, Germany) were agitated at 1000 rpm. […] Between measurements, the anti-human Tyro3 biosensor surfaces were regenerated by exposing them to 3 cycles of 5 sec in 10 mM glycine, pH 1.5, followed by 5 sec in PBS. Association phase was measured for 300 seconds, dissociation phase depending on the interaction for 300 seconds depending on dissociation step. All measurements were corrected for baseline drift using the double reference substraction, that is to say by subtracting a control sensor without ligand exposed to each concentration of the extra cellular domain of human Tyro3 protein and a reference well with ligand submitted to running buffer only. Affinity, association (kon) and dissociation rate constants (koff) for each antibody were calculated applying a 1:1 interaction model fitting global, Rmax linked by sensor) on the ForteBio data analysis software 9.0.

Assay [5] addresses T2, cynomolgus Tyro3 ECD, His-Strep tagged.
T2 construct: also called cyno TYRO3 ECD 8hisstrep
T2 extracellular domain: T1 sequence with V67A, I191V, A309G, R376H
The assay is described as follows: sandwich ELISA, Strep-tagged cynomolgus Tyro3 ECD captured on StrepMAB plate, IgG 3-fold from 3 µg/mL, anti-human IgG1-HRP. How it is done:
[The procedure below names another species; the source lists this species under the same test.] as §1

Assay [6] has as its target T1, recombinant His-Strep tagged human …. The assay is described as follows: BLI (Octet K2), IgG on AHC tips, hTyro3 ECD analyte, 1:1 global fit; kon Error 1,34E+02. On the procedure: as §2
The target is the same in assay [7]. The assay is described as follows: BLI (Octet K2), IgG on AHC tips, hTyro3 ECD analyte, 1:1 global fit; KD Error 4,35E-10. On the procedure: as §2
Assay [8] has the same target. The assay is described as follows: BLI (Octet K2), IgG on AHC tips, hTyro3 ECD analyte, 1:1 global fit; kdis(1/s); kdis Error 3,33E-05. On the procedure: as §2
Assay [9] shares this target. In words: BLI (Octet K2), IgG on AHC tips, hTyro3 ECD analyte, 1:1 global fit; kon Error 1,04E+03. How it is done:
as §2

The target is the same in assay [10]. In words: BLI (Octet K2), IgG on AHC tips, hTyro3 ECD analyte, 1:1 global fit; KD Error 1,47E-09. On the procedure:
as §2

Assay [11] shares this target. In words: BLI (Octet K2), IgG on AHC tips, hTyro3 ECD analyte, 1:1 global fit; kon Error 1,05E+03. On the procedure:
as §2

Assay [12] shares this target. In words: BLI (Octet K2), IgG on AHC tips, hTyro3 ECD analyte, 1:1 global fit; kdis(1/s); kdis Error 9,54E-05. How it is done:
as §2

Assay [13] shares this target. In words: BLI (Octet K2), IgG on AHC tips, hTyro3 ECD analyte, 1:1 global fit; kdis(1/s); kdis Error 1,02E-04. On the procedure:
as §2

Assay [14] has the same target. In words: BLI (Octet K2), IgG on AHC tips, hTyro3 ECD analyte, 1:1 global fit; kon Error 3,95E+02. How it is done: as §2
Assay [15] has the same target. In words: BLI (Octet K2), IgG on AHC tips, hTyro3 ECD analyte, 1:1 global fit; KD Error 4,92E-09. How it is done: as §2
Assay [16] has the same target. The assay is described as follows: BLI (Octet K2), IgG on AHC tips, hTyro3 ECD analyte, 1:1 global fit; kdis(1/s); kdis Error 4,43E-05. On the procedure:
as §2

Assay [17] shares this target. The assay is described as follows: BLI (Octet K2), IgG on AHC tips, hTyro3 ECD analyte, 1:1 global fit; KD Error 9,30E-10. How it is done: as §2
For assay [18] the target is unchanged. In words: BLI (Octet K2), IgG on AHC tips, hTyro3 ECD analyte, 1:1 global fit; kon Error 7,98E+02. How it is done:
as §2

The target is the same in assay [19]. The assay is described as follows: BLI (Octet K2), IgG on AHC tips, hTyro3 ECD analyte, 1:1 global fit; kon Error 8,90E+02. On the procedure:
as §2

Assay [20] has the same target. The assay is described as follows: BLI (Octet K2), IgG on AHC tips, hTyro3 ECD analyte, 1:1 global fit; kdis(1/s); kdis Error 1,71E-04. How it is done:
as §2

Assay [21] shares this target. In words: BLI (Octet K2), IgG on AHC tips, hTyro3 ECD analyte, 1:1 global fit; KD Error 6,89E-09. On the procedure:
as §2

Changes are numbered by the printed parent chain.

B1: IgG2710 (antibody, V domains shown)
VH: EVQLVQSGADVKKPGASLTISCQASGYTFTDYWISWVRQKPGKGLEWMGVINKYASWTRYGPSFQGHVTISADRSTATAYLQWRSLEASDTAMYYCVRSGGLTSGGTIPEYYQHWGPGTLVTVSS
VL: SYELTQPPSVSVSPGQTARITCSGDALPKKYAYWYQQKSGQAPVLVIYEDSKRPSGIPERFSGSSSGTMATLTISGAQVEDEADYYCYSQNPQGNYFVFGGGTKLTVL
notes: also called IGX2710
With B1, the EC50 (read off the curve) – broadly, the midpoint of the concentration-response curve – in [1] was approximately 0.03 µg/mL; in assay [5], approximately 0.01 µg/mL. Besides, the Kd – broadly, the concentration at which binding is half-saturated – in assay [2] came to 73.5 nM. Moreover, the koff (usually the rate constant with which the complex falls apart) in assay [3] came to 0.00213 s⁻¹. The kobs in [4] is 0.00321 s⁻¹. Moreover, the association rate constant (kon) – broadly, the second-order rate constant of association – in [6] came to 29000 M⁻¹ s⁻¹.

B2: IgG2713 (antibody, V domains shown)
VH: B1 VH with V50R, N52S, K53R, Y54H, A55G, W57Q, R59Y, S99A, L102Q
VL: B1 VL with S51H, P54A, Q90I, N91S, Q93A, F97G
notes: also called IGX2713
Regarding B2, the “EC50 (read off the curve)” value in assay [1] was approximately 0.03 µg/mL. The Kd in [7] is 39.3 nM. In assay [8], the koff is 0.00478 s⁻¹. The kon in assay [9] came to 122000 M⁻¹ s⁻¹. Further, the kobs in [4] came to 0.00934 s⁻¹. Moreover, in assay [5], the binding result is “binds”.

B3: IgG2413 (antibody, V domains shown)
VH: EVQLVQSGADVKKPGASLTISCQASGYTFTDYWISWVRQKPGKGLEWMGRIHTYQSSTRYGPSFQGHVTISADRSTATAYLQWRSLEASDTAMYYCVRHHSTTTANPYSSWGPGTLVTVSS
VL: B1 VL with S51D, P54L, Q90T, N91E, P92I, Q93N, F97A
notes: also called IGX2413
Take B3: the Kd in assay [10] amounted to 101 nM. The “EC50 (read off the curve)” value in assay [1] and in assay [5] was approximately 0.02 µg/mL in each case. Also, in assay [11], the association rate constant (kon) amounted to 97300 M⁻¹ s⁻¹. Also, the koff in assay [12] is 0.00987 s⁻¹. Further, the kobs in [4] came to 0.0342 s⁻¹.

B4: IgG2711 (antibody, V domains shown)
VH: B1 VH with V50Q, N52R, K53G, Y54Q, A55H, W57S, R59L, S99H, G101A, L102S
VL: B1 VL with S51A, P54S, Q90L, N91S, P92D, Q93S
notes: also called IGX2711
As for B4, the koff in assay [13] is 0.00992 s⁻¹. Moreover, the “EC50 (read off the curve)” value in assay [1] was approximately 0.01 µg/mL. Also, in assay [14], the kon was 32300 M⁻¹ s⁻¹. Moreover, in [4], the kobs is 0.014 s⁻¹. In [5], the binding result is “binds”. Also, in assay [15], the Kd was 307 nM.

B5: IgG2415 (antibody, V domains shown)
VH: B1 VH with V50Q, N52R, K53G, Y54P, W57A, R59H, S99H, G100Q, G101Q, L102Q
VL: B1 VL with S51K, P54I, Q90T, N91S, P92T, Q93G, F97M
notes: also called IGX2415
For B5, the “EC50 (read off the curve)” value in assay [1] is approximately 0.02 µg/mL. The off-rate constant (koff) in assay [16] was determined as 0.00539 s⁻¹. The dissociation constant (Kd) in assay [17] was found to be 70.2 nM. Besides, the association rate constant (kon) in assay [18] is 76800 M⁻¹ s⁻¹. In [4], the kobs amounted to 0.0102 s⁻¹. Further, the binding result in assay [5] is recorded as “binds”.

B6: IgG2414 (antibody, V domains shown)
VH: B1 VH with V50Q, K53R, Y54H, W57N, R59M, L102A
VL: B1 VL with S51W, P54A, N91E, P92R, Q93K
notes: also called IGX2414
As for B6, the on-rate constant (kon) in assay [19] was found to be 46900 M⁻¹ s⁻¹. Further, the koff in [20] was 0.0144 s⁻¹. The Kd in [21] is 308 nM. The kobs in assay [4] was found to be 0.0203 s⁻¹. Also, in assay [5], the binding result was “binds”.
